This note sets out measurements from patent US20220064276A1.

In this experiment the target is human LRRC33-proTGFβ1 complex (human) (UniProt Q86YC3). As to the kind of experiment: Octet, antibody immobilized. Background: Biolayer interferometry detects binding as a change in optical thickness at a sensor tip.
Sequence of human LRRC33-proTGFβ1 complex (human) (Q86YC3 19-650 limits assumed, chain 1 of 2): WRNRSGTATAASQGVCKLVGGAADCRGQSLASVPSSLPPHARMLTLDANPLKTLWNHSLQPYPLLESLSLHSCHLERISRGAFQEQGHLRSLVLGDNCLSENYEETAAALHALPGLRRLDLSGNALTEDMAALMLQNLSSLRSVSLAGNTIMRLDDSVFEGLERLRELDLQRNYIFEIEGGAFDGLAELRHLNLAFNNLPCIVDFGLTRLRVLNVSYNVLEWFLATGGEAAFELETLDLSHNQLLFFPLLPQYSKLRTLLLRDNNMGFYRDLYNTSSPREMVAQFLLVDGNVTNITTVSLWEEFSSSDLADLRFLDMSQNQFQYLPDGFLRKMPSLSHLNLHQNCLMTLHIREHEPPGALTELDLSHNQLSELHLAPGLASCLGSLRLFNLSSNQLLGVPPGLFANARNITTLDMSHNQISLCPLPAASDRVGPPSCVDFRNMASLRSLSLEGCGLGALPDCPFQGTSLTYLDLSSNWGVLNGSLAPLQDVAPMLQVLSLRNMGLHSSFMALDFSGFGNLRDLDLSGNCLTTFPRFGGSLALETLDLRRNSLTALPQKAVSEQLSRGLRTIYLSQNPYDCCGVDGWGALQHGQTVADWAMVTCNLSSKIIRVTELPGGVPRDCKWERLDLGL
Sequence of human LRRC33-proTGFβ1 complex (human) (chain, as listed by the source limits assumed, chain 2 of 2): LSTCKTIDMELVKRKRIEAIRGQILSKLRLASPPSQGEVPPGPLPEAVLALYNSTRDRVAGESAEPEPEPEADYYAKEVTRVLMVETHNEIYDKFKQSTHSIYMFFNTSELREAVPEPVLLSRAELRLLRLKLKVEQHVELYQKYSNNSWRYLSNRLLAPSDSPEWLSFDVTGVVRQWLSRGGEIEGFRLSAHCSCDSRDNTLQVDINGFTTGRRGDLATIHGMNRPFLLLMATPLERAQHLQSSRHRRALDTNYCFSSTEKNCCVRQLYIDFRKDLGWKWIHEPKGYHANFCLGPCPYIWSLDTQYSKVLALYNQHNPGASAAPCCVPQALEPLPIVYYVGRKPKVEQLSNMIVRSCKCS

B1: SR-AB22 (antibody, IgG1, V domains shown)
VH: QVQLVESGGGVVQPGRSLRLSCAASGFTFRSYVMHWVRQAPGKGLEWVAVISHEGSLKYYADSVKGRFTISRDNSKNTLYLQMNSLRAEDTAVYYCAVPRIAARRGGFGYWGQGTLVTVSS
VL: NFMLTQPHSVSESPGKTVTISCTRSSGNIDNNYVQWYQQRPGSSPTTVIYEDNQRPSGVPDRFSGSIDSSSNSASLTISGLKTEDEADYYCQSYDSDNQGVVFGGGTKLTVL
In turn, B1 yielded a Response (nm) of 0.133 nm.
